In PMC3269026 (Frontiers in Microbiology, 2012):

Target: T1, translocated intimin receptor (Tir) of EPEC, delivered to HEp-2 cells (EPEC (strain JPN15.96), UniProt B7UM99 1-550)
T1 sequence: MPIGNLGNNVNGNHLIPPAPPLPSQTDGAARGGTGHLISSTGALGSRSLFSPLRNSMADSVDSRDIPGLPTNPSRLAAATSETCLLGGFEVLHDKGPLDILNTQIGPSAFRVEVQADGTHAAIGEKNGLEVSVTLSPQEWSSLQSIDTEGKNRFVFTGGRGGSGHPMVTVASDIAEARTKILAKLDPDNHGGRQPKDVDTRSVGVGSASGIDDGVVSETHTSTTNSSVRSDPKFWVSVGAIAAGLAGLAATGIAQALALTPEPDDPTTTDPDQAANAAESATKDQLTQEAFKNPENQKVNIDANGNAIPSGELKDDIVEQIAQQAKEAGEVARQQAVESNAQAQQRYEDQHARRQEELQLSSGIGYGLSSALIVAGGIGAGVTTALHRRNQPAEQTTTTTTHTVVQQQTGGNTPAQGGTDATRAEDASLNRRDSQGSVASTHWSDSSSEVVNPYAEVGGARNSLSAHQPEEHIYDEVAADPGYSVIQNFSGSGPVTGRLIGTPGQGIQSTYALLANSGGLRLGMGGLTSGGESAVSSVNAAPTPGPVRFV
Experiment: bacterial adherence to Tir-primed cells

B1: EHEC intimin (natural protein)
chain: NGENYFKLGSDSKLLTHDSYQNRLFYTLKTGETVADLSKSQDINLSTIWSLNKHLYSSESEMMKAAPGQQIILPLKKLPFEYSALPLLGSAPLVAAGGVAGHTNKLTKMSPDVTKSNMTDDKALNYAAQQAASLGSQLQSRSLNGDYAKDTALGIAGNQASSQLQAWLQHYGTAEVNLQSGNNFDGSSLDFLLPFYDSEKMLAFGQVGARYIDSRFTANLGAGQRFFLPANMLGYNVFIDQDFSGDNTRLGIGGEYWRDYFKSSVNGYFRMSGWHESYNKKDYDERPANGFDIRFNGYLPSYPALGAKLIYEQYYGDNVALFNSDKLQSNPGAATVGVNYTPIPLVTMGIDYRHGTGNENDLLYSMQFRYQFDKSWSQQIEPQYVNELRTLSGSRYDLVQRNNNIILEYKKQDILSLNIPHDINGTEHSTQKIQLIVKSKYGLDRIVWDDSALRSQGGQIQHSGSQSAQDYQAILPAYVQGGSNIYKVTARAYDRNGNSSNNVQLTITVLSNGQVVDQVGVTDFTADKTSAKADNADTITYTATVKKNGVAQANVPVSFNIVSGTATLGANSAKTDANGKATVTLKSSTPGQVVVSAKTAEMTSALNASAVIFFDQTKASITEIKADKTTAVANGKDAIKYTVKVMKNGQPVNNQSVTFSTNFGMFNGKSQTQATTGNDGRATITLTSSSAGKATVSATVSDGAEVKATEVTFFDELKIDNKVDIIGNNVRGELPNIWLQYGQFKLKASGGDGTYSWYSENTSIATVDASGKVTLNGKGSVVIKATSGDKQTVSYTIKAPSYMIKVDKQAYYADAMSICKNLLPSTQTVLSDIYDSWGAANKYSHYSSMNSITAWIKQTSSEQRSGVSSTYNLITQNPLPGVNVNTPNVYAVCVE
B1 was tested, and the “fold binding over C. rodentiumΔeae” value was ~20 fold.
